Experimental data reported in article PMC8516096.

What was measured:
Settings in all cases: Holoenzyme reconstitution: 200 mM Tris-HCl pH 8.0, 30 mM KCl, 10 mM MgCl2, 50 mM NaCl, 1 mM DTT, 1 mM EDTA, BSA 20 ug/ml, 30 C 45 min; DNA binding: 50 mM …
[1] = target: RNAP core enzyme (E, alpha2 beta beta' omega) (Escherichia coli) (UniProt P0A7Z4+P0A8V2+P0A8T7+P0A800); experiment: EMSA
[2] = target: RNAP core enzyme (E, alpha2 beta beta' omega);RpoD (sigmaD, sigma70) (Escherichia coli;Salmonella enterica serovar Typhimurium ATCC 14028?) (UniProt P0A7Z4+P0A8V2+P0A8T7+P0A800+P0A2E3); experiment: EMSA
[3] = target: T1, RNAP core enzyme (E, alpha2 beta beta' omega);RpoS (sigmaS, sigma38) (Escherichia coli;Salmonella enterica serovar Typhimurium ATCC 14028?) (UniProt P0A7Z4+P0A8V2+P0A8T7+P0A800+D0ZVL4); experiment: EMSA
[4] = target: T1, RNAP core enzyme (E, alpha2 beta beta' omega);RpoS (sigmaS, sigma38) (Escherichia coli;Salmonella enterica serovar Typhimurium ATCC 14028?); experiment: EMSA with anti-RpoS immunoblot
[5] = target: T2, RNAP core enzyme (E, alpha2 beta beta' omega);RpoS (sigmaS, sigma38);Crl (Escherichia coli;Salmonella enterica serovar Typhimurium ATCC 14028?;Salmonella enterica serovar Typhimurium ATCC 14028?) (UniProt P0A7Z4+P0A8V2+P0A8T7+P0A800+D0ZVL4+Q7CR52); experiment: EMSA with anti-RpoS immunoblot
[6] = target: T2, RNAP core enzyme (E, alpha2 beta beta' omega);RpoS (sigmaS, sigma38);Crl (Escherichia coli;Salmonella enterica serovar Typhimurium ATCC 14028?;Salmonella enterica serovar Typhimurium ATCC 14028?); experiment: competition EMSA with anti-RpoS immunoblot

Measured: binding

AGTACATATAGTTTCATCAGAAGATTAATCGATGGTGTTATCATTAGGAAGATAAATTTCTTCATATATAACCCAGTCGATGACTACAATTACTTTTTAATAAGATGGCGATGTAAAAACATCGTAACAGTTTATTTAATAAATAATTTTTCAAATTGTAAGTTTTTATGTC (double strand) [PssrA region]
binds: all assays above
